The source of these data is US20150203577A1 (Chugai, published 2015).

Test [1] concerns the target T1, mouse FcγRIII extracellular domain, C-terminal His tag (mouse, UniProt P08508 31-215).
T1 construct: also called mFcγRIII; mFcgRIII
T1 chain: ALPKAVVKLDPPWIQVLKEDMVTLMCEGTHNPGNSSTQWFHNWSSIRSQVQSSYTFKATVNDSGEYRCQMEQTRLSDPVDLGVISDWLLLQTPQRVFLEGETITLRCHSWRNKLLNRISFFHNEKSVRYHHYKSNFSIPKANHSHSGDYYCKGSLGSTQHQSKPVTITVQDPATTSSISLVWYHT
In words: SPR (Biacore T200), antibody captured on Protein L, mFcγR analyte. In general terms: In SPR one partner is held on a chip, and binding of the other changes the refractive index at the surface.

For test [2], the target named is T2, mouse FcγRII extracellular domain, C-terminal His tag (mouse, UniProt P08101 30-210).
T2 construct: also called mFcγRII; mFcgRII
T2 sequence: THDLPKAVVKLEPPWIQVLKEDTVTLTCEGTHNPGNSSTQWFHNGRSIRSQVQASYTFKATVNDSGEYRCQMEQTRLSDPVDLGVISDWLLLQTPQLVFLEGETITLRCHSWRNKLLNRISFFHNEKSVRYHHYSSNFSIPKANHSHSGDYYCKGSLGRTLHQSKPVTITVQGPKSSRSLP
Described as above.

B1: H237-MB867/MRAL-k0 (antibody, mouse IgG1, kappa)
heavy: QVQLQESGPGLVKPSETLSLTCAVSGHSISHDHAWSWVRQPPGEGLEWIGFISYSGITNYNPSLQGRVTISRDNSKNTLYLQMNSLRAEDTAVYYCARSLARTTAMDYWGEGTLVTVSSAKTTPPSVYPLAPGSAAQTNSMVTLGCLVKGYFPEPVTVTWNSGSLSSGVHTFPAVLQSDLYTLSSSVTVPSSTWPSETVTCNVAHPASSTKVDKKIVPRDCGCKPCICEPNEVEIVFIFPPKPKDVLTITLTPKVTCVVVDISDDDPEVQFSWFVDDVEVHTAQTQPREEQFNSTFRSVSELPIMHQDWLNGKEFKCRVNSDGFPAPIEKTISKTKGRPKAPQVYTIPPPKEQMAKDKVSLTCMITDFFPEDITVEWQWNGQPAENYKNTQPIMDTDGSYFVYSKLNVQKSNWEAGNTFTCSVLHEGLHNHHTEKSLSHSPGK
light: not shown
notes: copies: 2 + 2
By Kd is commonly meant the free concentration of one partner at which half of the binding sites on the other are occupied at equilibrium, for simple one-to-one binding. Take B1: in test [1], the affinity, expressed as Kd, was 331 nM and the “relative mFcγRIII-binding activity (mIgG1 = 1)” value was 0.9 fold vs H237-mIgG1/MRAL-k0. Besides, in test [2], the affinity, expressed as Kd, was 5.96 nM and the “relative mFcγRII-binding activity (mIgG1 = 1)” value was 35.2 fold vs H237-mIgG1/MRAL-k0.

B2: H237-MB875/MRAL-k0 (antibody, mouse IgG1, kappa)
heavy: QVQLQESGPGLVKPSETLSLTCAVSGHSISHDHAWSWVRQPPGEGLEWIGFISYSGITNYNPSLQGRVTISRDNSKNTLYLQMNSLRAEDTAVYYCARSLARTTAMDYWGEGTLVTVSSAKTTPPSVYPLAPGSAAQTNSMVTLGCLVKGYFPEPVTVTWNSGSLSSGVHTFPAVLQSDLYTLSSSVTVPSSTWPSETVTCNVAHPASSTKVDKKIVPRDCGCKPCICEPNEVEIVFIFPPKPKDVLTITLTPKVTCVVVDISDDDPEVQFSWFVDDVEVHTAQTQPREELFNSTFRSVSELPIMHQDWLNGKEFKCRVDSDGFPAPIEKTISKTKGRPKAPQVYTIPPPKEQMAKDKVSLTCMITDFFPEDITVEWQWNGQPAENYKNTQPIMDTDGSYFVYSKLNVQKSNWEAGNTFTCSVLHEGLHNHHTEKSLSHSPGK
light: not shown
notes: copies: 2 + 2
On to B2, for which, in test [1], the affinity, expressed as Kd, was 147 nM and the “relative mFcγRIII-binding activity (mIgG1 = 1)” value is 1.9 fold vs H237-mIgG1/MRAL-k0. In test [2], the Kd was found to be 2.88 nM and the “relative mFcγRII-binding activity (mIgG1 = 1)” value was 72.8 fold vs H237-mIgG1/MRAL-k0.

B3: H237-MB870/MRAL-k0 (antibody, mouse IgG1, kappa)
heavy: QVQLQESGPGLVKPSETLSLTCAVSGHSISHDHAWSWVRQPPGEGLEWIGFISYSGITNYNPSLQGRVTISRDNSKNTLYLQMNSLRAEDTAVYYCARSLARTTAMDYWGEGTLVTVSSAKTTPPSVYPLAPGSAAQTNSMVTLGCLVKGYFPEPVTVTWNSGSLSSGVHTFPAVLQSDLYTLSSSVTVPSSTWPSETVTCNVAHPASSTKVDKKIVPRDCGCKPCICEPNEVEIVFIFPPKPKDVLTITLTPKVTCVVVDISDDDPEVQFSWFVDDVEVHTAQTQPREEQFNSTFRSVSELPIMHQDWLNGKEFKCRVNSDGFPAPIERTISKTKGRPKAPQVYTIPPPKEQMAKDKVSLTCMITDFFPEDITVEWQWNGQPAENYKNTQPIMDTDGSYFVYSKLNVQKSNWEAGNTFTCSVLHEGLHNHHTEKSLSHSPGK
light: not shown
notes: copies: 2 + 2
As for B3, in test [1], the Kd stood at 269 nM and the “relative mFcγRIII-binding activity (mIgG1 = 1)” value is 1 fold vs H237-mIgG1/MRAL-k0. For the same molecule, in test [2], the Kd is 5.44 nM and the “relative mFcγRII-binding activity (mIgG1 = 1)” value is 38.6 fold vs H237-mIgG1/MRAL-k0.

B4: H237-MB868/MRAL-k0 (antibody, mouse IgG1, kappa)
heavy: QVQLQESGPGLVKPSETLSLTCAVSGHSISHDHAWSWVRQPPGEGLEWIGFISYSGITNYNPSLQGRVTISRDNSKNTLYLQMNSLRAEDTAVYYCARSLARTTAMDYWGEGTLVTVSSAKTTPPSVYPLAPGSAAQTNSMVTLGCLVKGYFPEPVTVTWNSGSLSSGVHTFPAVLQSDLYTLSSSVTVPSSTWPSETVTCNVAHPASSTKVDKKIVPRDCGCKPCICEPNEVEIVFIFPPKPKDVLTITLTPKVTCVVVDISDDDPEVQFSWFVDDVEVHTAQTQPREEQFNSTFRSVSELPIMHQDWLNGKEFKCRVDSDGFPAPIEKTISKTKGRPKAPQVYTIPPPKEQMAKDKVSLTCMITDFFPEDITVEWQWNGQPAENYKNTQPIMDTDGSYFVYSKLNVQKSNWEAGNTFTCSVLHEGLHNHHTEKSLSHSPGK
light: not shown
notes: copies: 2 + 2
In the case of B4, in test [1], binding was characterised by a dissociation constant (Kd) of 329 nM and the “relative mFcγRIII-binding activity (mIgG1 = 1)” value was 0.9 fold vs H237-mIgG1/MRAL-k0. For the same molecule, in test [2], the equilibrium dissociation constant (Kd) was found to be 5.73 nM and the “relative mFcγRII-binding activity (mIgG1 = 1)” value was 36.6 fold vs H237-mIgG1/MRAL-k0.

B5: H237-MB869/MRAL-k0 (antibody, mouse IgG1, kappa)
heavy: QVQLQESGPGLVKPSETLSLTCAVSGHSISHDHAWSWVRQPPGEGLEWIGFISYSGITNYNPSLQGRVTISRDNSKNTLYLQMNSLRAEDTAVYYCARSLARTTAMDYWGEGTLVTVSSAKTTPPSVYPLAPGSAAQTNSMVTLGCLVKGYFPEPVTVTWNSGSLSSGVHTFPAVLQSDLYTLSSSVTVPSSTWPSETVTCNVAHPASSTKVDKKIVPRDCGCKPCICEPNEVEIVFIFPPKPKDVLTITLTPKVTCVVVDISDDDPEVQFSWFVDDVEVHTAQTQPREEQFNSTFRSVSELPIMHQDWLNGKEFKCRVNSDGFPAPIYKTISKTKGRPKAPQVYTIPPPKEQMAKDKVSLTCMITDFFPEDITVEWQWNGQPAENYKNTQPIMDTDGSYFVYSKLNVQKSNWEAGNTFTCSVLHEGLHNHHTEKSLSHSPGK
light: not shown
notes: copies: 2 + 2
Consider B5, for which, in test [1], the equilibrium dissociation constant (Kd) is 300 nM and the “relative mFcγRIII-binding activity (mIgG1 = 1)” value was 0.9 fold vs H237-mIgG1/MRAL-k0. Besides, in test [2], the Kd came out at 5.12 nM and the “relative mFcγRII-binding activity (mIgG1 = 1)” value is 41 fold vs H237-mIgG1/MRAL-k0.

B6: H237-MB876/MRAL-k0 (antibody, mouse IgG1, kappa)
heavy: QVQLQESGPGLVKPSETLSLTCAVSGHSISHDHAWSWVRQPPGEGLEWIGFISYSGITNYNPSLQGRVTISRDNSKNTLYLQMNSLRAEDTAVYYCARSLARTTAMDYWGEGTLVTVSSAKTTPPSVYPLAPGSAAQTNSMVTLGCLVKGYFPEPVTVTWNSGSLSSGVHTFPAVLQSDLYTLSSSVTVPSSTWPSETVTCNVAHPASSTKVDKKIVPRDCGCKPCICEPNEVEIVFIFPPKPKDVLTITLTPKVTCVVVDISDDDPEVQFSWFVDDVEVHTAQTQPREELFNSTFRSVSELPIMHQDWLNGKEFKCRVNSDGFPAPIYKTISKTKGRPKAPQVYTIPPPKEQMAKDKVSLTCMITDFFPEDITVEWQWNGQPAENYKNTQPIMDTDGSYFVYSKLNVQKSNWEAGNTFTCSVLHEGLHNHHTEKSLSHSPGK
light: not shown
notes: copies: 2 + 2
On to B6, for which, in test [1], the equilibrium dissociation constant (Kd) is 191 nM and the “relative mFcγRIII-binding activity (mIgG1 = 1)” value is 1.5 fold vs H237-mIgG1/MRAL-k0. For the same molecule, in test [2], the affinity, expressed as Kd, was 3.58 nM and the “relative mFcγRII-binding activity (mIgG1 = 1)” value was 58.7 fold vs H237-mIgG1/MRAL-k0.

B7: H237-MB877/MRAL-k0 (antibody, mouse IgG1, kappa)
heavy: QVQLQESGPGLVKPSETLSLTCAVSGHSISHDHAWSWVRQPPGEGLEWIGFISYSGITNYNPSLQGRVTISRDNSKNTLYLQMNSLRAEDTAVYYCARSLARTTAMDYWGEGTLVTVSSAKTTPPSVYPLAPGSAAQTNSMVTLGCLVKGYFPEPVTVTWNSGSLSSGVHTFPAVLQSDLYTLSSSVTVPSSTWPSETVTCNVAHPASSTKVDKKIVPRDCGCKPCICEPNEVEIVFIFPPKPKDVLTITLTPKVTCVVVDISDDDPEVQFSWFVDDVEVHTAQTQPREEQFNSTFRSVSELPIMHQDWLNGKEFKCRVDSDGFPAPIERTISKTKGRPKAPQVYTIPPPKEQMAKDKVSLTCMITDFFPEDITVEWQWNGQPAENYKNTQPIMDTDGSYFVYSKLNVQKSNWEAGNTFTCSVLHEGLHNHHTEKSLSHSPGK
light: not shown
notes: copies: 2 + 2
B7: in test [1], the Kd stood at 195 nM and the “relative mFcγRIII-binding activity (mIgG1 = 1)” value is 1.4 fold vs H237-mIgG1/MRAL-k0. In test [2], the Kd came to 3.8 nM and the “relative mFcγRII-binding activity (mIgG1 = 1)” value is 55.3 fold vs H237-mIgG1/MRAL-k0.

B8: H237-MB871/MRAL-k0 (antibody, mouse IgG1, kappa)
heavy: QVQLQESGPGLVKPSETLSLTCAVSGHSISHDHAWSWVRQPPGEGLEWIGFISYSGITNYNPSLQGRVTISRDNSKNTLYLQMNSLRAEDTAVYYCARSLARTTAMDYWGEGTLVTVSSAKTTPPSVYPLAPGSAAQTNSMVTLGCLVKGYFPEPVTVTWNSGSLSSGVHTFPAVLQSDLYTLSSSVTVPSSTWPSETVTCNVAHPASSTKVDKKIVPRDCGCKPCICEPNEVEIVFIFPPKPKDVLTITLTPKVTCVVVDISDDDPEVQFSWFVDDVEVHTAQTQPREELFNSTFRSVSELPIMHQDWLNGKEFKCRVNSDGFPAPIEKTISKTKGRPKAPQVYTIPPPKEQMAKDKVSLTCMITDFFPEDITVEWQWNGQPAENYKNTQPIMDTDGSYFVYSKLNVQKSNWEAGNTFTCSVLHEGLHNHHTEKSLSHSPGK
light: not shown
notes: copies: 2 + 2
B8: in test [1], the Kd worked out at 169 nM and the “relative mFcγRIII-binding activity (mIgG1 = 1)” value is 1.7 fold vs H237-mIgG1/MRAL-k0. Besides, in test [2], binding was put at a Kd of 3.4 nM and the “relative mFcγRII-binding activity (mIgG1 = 1)” value is 61.8 fold vs H237-mIgG1/MRAL-k0.
